Substitutions are numbered along the chain they refer to.
B1: HP2-(EEAAKK)4-MEA4: hair-binding domain, SEQ ID NO: 75 (peptide)
chain: PSAQSQLPDKHSGLHERAPQRYGPEEAAKKEEAAKKEEAAKKEEAAKKPAHINKTNPHQGNHHSEKTQRQGS
B2: Gray3-(EAAAKLL)4-HB1: hair-binding domain, SEQ ID NO: 100 (peptide)
chain: PSHDHKNQKETHQRHAAGPEAAAKLLEAAAKLLEAAAKLLEAAAKLLPATPPTNVLMLATKGS
B3: Gray5-[(KP)6GG]2-Gray4A: hair-binding domain, SEQ ID NO: 78 (peptide)
chain: PSTAEIQSSKNPNPHPQRSWTNGPKPKPKPKPKPKPGGKPKPKPKPKPKPGGPAHNHMQERYTAPQHSPSVNGLGS
B4: MEA4-[(KP)6GG]2-MEA4: hair-binding domain, SEQ ID NO: 102 (peptide)
chain: PSHINKTNPHQGNHHSEKTQRQGPKPKPKPKPKPKPGGKPKPKPKPKPKPGGPAHINKTNPHQGNHHSEKTQRQGS
B5: HP2-(EEAAKK)4-Gray1: hair-binding domain, SEQ ID NO: 73 (peptide)
chain: PSAQSQLPDKHSGLHERAPQRYGPEEAAKKEEAAKKEEAAKKEEAAKKPAGMPAMHWIHPFAGS
B6: Gray3-TonB-HP1: hair-binding domain, SEQ ID NO: 98 (peptide)
chain: PSHDHKNQKETHQRHAAGPEPEPEPEPIPEPPKEAPVVIEKPKPKPKPKPKPPAGSCVDTHKADSCVANNGPATGS
B7: HP2-TonB-Gray3: hair-binding domain, SEQ ID NO: 85, also found in peptide HC353 (peptide)
chain: PSAQSQLPDKHSGLHERAPQRYGPEPEPEPEPIPEPPKEAPVVIEKPKPKPKPKPKPPAHDHKNQKETHQRHAAGS
B8: Gray5-[(KP)6GG]2-HP2: hair-binding domain, SEQ ID NO: 99 (peptide)
chain: PSTAEIQSSKNPNPHPQRSWTNGPKPKPKPKPKPKPGGKPKPKPKPKPKPGGPAAQSQLPDKHSGLHERAPQRYGS
B9: MEA4-(EAAAKLL)3-IB5A: hair-binding domain, SEQ ID NO: 94 (peptide)
chain: PSHINKTNPHQGNHHSEKTQRQGPEAAAKLLEAAAKLLEAAAKLLPATPPELLHGAPRSGS
B10: HP2-(EEAAKK)5-Gray4A: hair-binding domain, SEQ ID NO: 74 (peptide)
chain: PSAQSQLPDKHSGLHERAPQRYGPEEAAKKEEAAKKEEAAKKEEAAKKEEAAKKPAHNHMQERYTAPQHSPSVNGLGS
B11: Gray5-(EAAAKLL)3-Gray3: hair-binding domain, SEQ ID NO: 92 (peptide)
chain: PSTAEIQSSKNPNPHPQRSWTNGPEAAAKLLEAAAKLLEAAAKLLPAHDHKNQKETHQRHAAGS
B12: HP2-TonB-IB5A: hair-binding domain, SEQ ID NO: 88 (peptide)
chain: PSAQSQLPDKHSGLHERAPQRYGPEPEPEPEPIPEPPKEAPVVIEKPKPKPKPKPKPPATPPELLHGAPRSGS
B13: HP2-TonB-HB1: hair-binding domain, SEQ ID NO: 93 (peptide)
chain: B12 chain with E63T, L64N, L65V, H66L, G67M, A68L, P69A, R70T, S71K
B14: HP2-TonB-MEA4: hair-binding domain, SEQ ID NO: 89 (peptide)
chain: PSAQSQLPDKHSGLHERAPQRYGPEPEPEPEPIPEPPKEAPVVIEKPKPKPKPKPKPPAHINKTNPHQGNHHSEKTQRQGS
B15: KF11-[(KP)6GG]2-Gray4A: hair-binding domain, SEQ ID NO: 97 (peptide)
chain: PSNTSQLSTGPKPKPKPKPKPKPGGKPKPKPKPKPKPGGPAHNHMQERYTAPQHSPSVNGLGS
B16: HP2-TonB-HP2: hair-binding domain, SEQ ID NO: 91 (peptide)
chain: PSAQSQLPDKHSGLHERAPQRYGPEPEPEPEPIPEPPKEAPVVIEKPKPKPKPKPKPPAAQSQLPDKHSGLHERAPQRYGS
B17: Gray5-(EAAAKLL)3-MEA4: hair-binding domain, SEQ ID NO: 90 (peptide)
chain: PSTAEIQSSKNPNPHPQRSWTNGPEAAAKLLEAAAKLLEAAAKLLPAHINKTNPHQGNHHSEKTQRQGS

Legend:
[1] = Phage titer assay of phage binding to hair; set-up: species or system human; settings: phage-displayed peptide; six gray hair strands; relative to HP2-TonB-Gray3 = 100
Protocol: (§1) Phage particles recovered from panning (Example 2) were used to infect E. coli 10GF′ and transformants were purified by colony isolation. Purified phagemid clones were infected with helper phage VCSM13 and phage particles were isolated. Those purified phage clones were assayed for binding to hair by two methods.
Six gray hair strands (1.5 cm long) were blocked with BSA (1 mg/mL) at room temperature (˜21° C.) for 30 min in 1.5 mL microfuge tubes, then washed twice with tris buffered saline (TBS). Phage particles were added in TBS plus 0.1% TWEEN®-20 and incubated at room temperature for 1 hour with gentle shaking. The hair was then washed 3 times with TBS plus 0.5% TWEEN®-20, and centrifuged briefly to remove excess liquid. E. coli 10GF′ (1 mL; OD600nm=0.5) was added for 15 min. Aliquots were plated on selective plates and phagemid-containing colonies were counted (Table 4)

[2] = Phage ELISA of phage binding to hair; set-up: species or system human; settings: phage-displayed peptide, 1×10^11 pfu; A450; relative to HP2-TonB-Gray3 = 100
Protocol: as §1
Gray hair (200 strands, 1.5 cm long per bundle were blocked with BSA (1 mg/mL) at room temperature (˜21° C.) for 30 min in 1.5 mL microfuge tubes, then washed 3 times with TBS. Phage particles (1×10^11 pfu) were added in TBS plus 0.1% TWEEN®-20 and incubated at room temperature for 1 hr with gentle shaking. The hair was then washed 5 times with TBS plus 0.5% TWEEN®-20. Hair with bound phage was incubated with HRP/Anti-M13 monoclonal conjugate (GE Healthcare Bio-Science Corp, Piscataway, N.J.) at room temperature (˜21° C.) for 1 hr with gentle shaking, then washed 6 times with TBS plus 0.5% TWEEN®-20. IMMUNOPURE® TMB substrate kit (High sensitivity, Pierce, Rockford, Ill.; a division of Thermo Scientific) was used for colorimetric assay. After 15˜20 min development with gentle shaking, the reaction was stopped, and absorbance was determined at 450 nm. The Phage titer and ELISA data were reported relative to the activity observed for the hair-binding domain HP2-TonB-Gray3. (Table 4).

Row | Molecule | Phage Titer (%) relative to the activity of HP2-TonB-Gray3 [1] | ELISA (%) relative to the activity of HP2-TonB-Gray3 [2]
1 | Gray3-[(KP)6GG]2-KF11: hair-binding domain, SEQ ID NO: 83 (PSHDHKNQKETHQRHAAGPKPKPKPKPKPKPGGKPKPKPKPKPKPGGPANTSQLSTGS) | 1% | 1%
2 | HB1-(KGGGS)4-HP2: hair-binding domain with flexible linker, SEQ ID NO: 95 (PSTPPTNVLMLATKGPKGGGSKGGGSKGGGSKGGGSPAAQSQLPDKHSGLHERAPQRYGS) | 10% | 1%
3 | Gray1-(KP)8-Gray1: hair-binding domain, SEQ ID NO: 77 (PSGMPAMHWIHPFAGPKPKPKPKPKPKPKPKPPAGMPAMHWIHPFAGS) | 1% | 1%
4 | HP2-(EEAAKK)2-MEA4: hair-binding domain, SEQ ID NO: 76 (PSAQSQLPDKHSGLHERAPQRYGPEEAAKKEEAAKKPAHINKTNPHQGNHHSEKTQRQGS) | 330% | 130%
5 | KF11-[(KP)6GG]2-KF11: hair-binding domain, SEQ ID NO: 101 (PSNTSQLSTGPKPKPKPKPKPKPGGKPKPKPKPKPKPGGPANTSQLSTGS) | 1% | 1%
6 | HB1-(KP)12-IB5A: hair-binding domain, SEQ ID NO: 96 (PSTPPTNVLMLATKGPKPKPKPKPKPKPKPKPKPKPKPKPPATPPELLHGAPRSGS) | 5% | 1%
7 | B1 | 80% | 170%
8 | B2 | 1% | 1%
9 | B3 | 1% | 1%
10 | B4 | 1% | 1%
11 | B5 | 40% | 8%
12 | B6 | 1% | 1%
13 | B7 | 100% | 100%
14 | B8 | 1% | 1%
15 | B9 | 10% | 20%
16 | B10 | 50% | 80%
17 | B11 | 10% | 60%
18 | B12 | 50% | 100%
19 | B13 | 30% | 1%
20 | B14 | 1% | 1%
21 | B15 | 1% | 1%
22 | B16 | 55% | 55%
23 | B17 | 25% | 115%
